Reference: patent publication US20250197490A1 (HBM ALPHA THERAPEUTICS, published 2025)
Where a chain is given by its changes, count along the chain named. Where two headings read alike, the source gives them in different places. Blank lines part the entries; values can stand above or below the binder they belong to.

Tests used:
Assay in all cases: cell-based or functional assay
[1] = target: T1, corticotropin-releasing hormone (CRH) peptide (human and mouse, UniProt P01143 145-185 (rat entry), not fully specified)
T1 peptide: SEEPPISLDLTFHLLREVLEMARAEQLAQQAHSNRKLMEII

[2] = target: T1, corticotropin-releasing hormone (CRH) …
[3] = target: T1, corticotropin-releasing hormone (CRH) …

- hCRHR1-Luc 0.5 nM CRH IC50 [1]: 1.36 nM
B1: PR302334-27 (antibody, human IgG1, kappa, V domains shown)
VH: EVQLVESGGGLVQPGGSLRLSCAASGFTFSTYAMSWVRQAPGKGLEWVASIRSGGTTYYPDSVKGRFTISRDNSKNSLYLQMNSLRAEDTAVYYCTRGIDWGQGTTVTVSS
VL: DIQMTQSSLSASVSLGDRVTITCKASQSVNNDVAWYQQKPGKAPRLLIYYASNRYTGVPSRFSGSGSGTDFTFTISSLQPEDLATYFCQQDYSSWTFGGGTKVEIKR

- hCRHR1-Luc 0.5 nM CRH IC50 [1]: 0.92 nM
B2: PR302334-22 (antibody, human IgG1, kappa, V domains shown)
VH: B1 VH with A49S, T96A
VL: EIVMTQSPATLSVSPGERATLSCKASQSVNNDVAWYQQKPGQAPRLLIYYASNRYTGIPARFSGSGSGTEFTLTISSLQSEDLAVYFCQQDYSSWTFGGGTKVEIKR

- hCRHR1-Luc 0.5 nM CRH IC50 [1]: 1.42 nM
B3: PR302334-9 (antibody, human IgG1, kappa, V domains shown)
VH: B1 VH with S77T
VL: DIVMTQSPDSLAVSLGERATINCKASQSVNNDVAWYQQKPGQPPRLLIYYASNRYTGVPDRFSGSGSGTDFTLTISSLQAEDVAVYYCQQDYSSWTFGGGTKVEIKR

- hCRHR1-Luc 0.5 nM CRH IC50 [1]: 12.2 nM
B4: PR302334-17 (antibody, human IgG1, kappa, V domains shown)
VH: B1 VH with A49S, T96A
VL: NIVMTQTPKFLLVSAGDRITITCKASQSVNNDVAWYQQKPGQSPKLLIYYASNRYTGVPDRFTGSGYGTDFTFTISTVQAEDLAVYFCQQDYSSWTFGGGTNLEIKR

- hCRHR1-Luc 0.5 nM CRH IC50 [1]: 0.404 nM
B5: PR302334-6 (antibody, human IgG1, kappa, V domains shown)
VH: EVKLVESGGGLVKPGGSLKLSCAASGFTFSTYAMSWVRQTPEKRLEWVASIRSGGTTYYPDSVKGRFTISRDNARNILYLQMSSLRSEDTAIYYCTRGIDWGQGTLVTVSA
VL: B1 VL

- hCRHR1-Luc 0.5 nM CRH IC50 [1]: 0.839 nM
B6: PR302334-10 (antibody, human IgG1, kappa, V domains shown)
VH: B1 VH with S77T
VL: B3 VL with V83L, Y87F

- hCRHR1-Luc 0.5 nM CRH IC50 [1]: 0.325 nM
B7: PR302334-5 (antibody, human IgG1, kappa, V domains shown)
VH: B5 VH
VL: B1 VL with L83I, F87Y

- hCRHR1-Luc 0.5 nM CRH IC50 [1]: 0.986 nM
B8: PR302334-12 (antibody, human IgG1, kappa, V domains shown)
VH: B1 VH with S77T
VL: B1 VL

- hCRHR1-Luc 0.5 nM CRH IC50 [1]: 5.12 nM
B9: PR302334-15 (antibody, human IgG1, kappa, V domains shown)
VH: B1 VH with Q13K, A49S, S74A, T96A
VL: B4 VL

- hCRHR1-Luc 0.5 nM CRH IC50 [1]: 0.778 nM
B10: PR302334-24 (antibody, human IgG1, kappa, V domains shown)
VH: B1 VH with Q13K, S74A
VL: B3 VL with V83L, Y87F

- hCRHR1-Luc 0.5 nM CRH IC50 [1]: 0.279 nM
B11: PR302334-18 (antibody, human IgG1, kappa, V domains shown)
VH: B1 VH
VL: B4 VL

- hCRHR1-Luc 0.5 nM CRH IC50 [1]: 1 nM
B12: PR302334-11 (antibody, human IgG1, kappa, V domains shown)
VH: B1 VH with S77T
VL: B1 VL with L83I, F87Y

- hCRHR1-Luc 0.5 nM CRH IC50 [1]: 0.996 nM
B13: PR302334-7 (antibody, human IgG1, kappa, V domains shown)
VH: B1 VH with S77T
VL: B2 VL with L83F, F87Y

- hCRHR1-Luc 0.5 nM CRH IC50 [1]: 1.7 nM
B14: PR302334-25 (antibody, human IgG1, kappa, V domains shown)
VH: B1 VH with Q13K, S74A
VL: B1 VL

- hCRHR1-Luc 0.5 nM CRH IC50 [1]: 0.339 nM
B15: PR302334-16 (antibody, human IgG1, kappa, V domains shown)
VH: B1 VH with Q13K, S74A
VL: B4 VL

- hCRHR1-Luc 0.5 nM CRH IC50 [1]: 0.816 nM
B16: PR302334-8 (antibody, human IgG1, kappa, V domains shown)
VH: B1 VH with S77T
VL: B2 VL

- hCRHR1-Luc 0.5 nM CRH IC50 [1]: 0.468 nM
B17: PR302334-14 (antibody, human IgG1, kappa, V domains shown)
VH: B1 VH with S77T
VL: B4 VL

- hCRHR1-Luc 0.5 nM CRH IC50 [1]: 0.624 nM
B18: PR302334-1 (antibody, human IgG1, kappa, V domains shown)
VH: B5 VH
VL: B2 VL with L83F, F87Y

- hCRHR1-Luc 0.5 nM CRH IC50 [1]: 0.553 nM
B19: PR302334-4 (antibody, human IgG1, kappa, V domains shown)
VH: B5 VH
VL: B3 VL with V83L, Y87F

- hCRHR1-Luc 0.5 nM CRH IC50 [1]: 0.597 nM
B20: PR302334-2 (antibody, human IgG1, kappa, V domains shown)
VH: B5 VH
VL: B2 VL

- hCRHR1-Luc 0.5 nM CRH IC50 [1]: 0.542 nM
B21: PR302334-3 (antibody, human IgG1, kappa, V domains shown)
VH: B5 VH
VL: B3 VL

- hCRHR1-Luc 0.5 nM CRH IC50 [2]: 0.711 nM
B22: PR302341-25 (antibody, human IgG1, kappa, V domains shown)
VH: QVQLVQSGAEVKKPGASVKVSCKASGYTFTDYFMKWVRQAPGQRLEWMGVINPNNGDIFYNQKFKGRVTITVDKSASTAYMELSSLRSEDTAVYYCARGTDRALFAYWGQGTLVTVSS
VL: DVVMTQTPLSLSVTPGQPASISCRSGQSIVHSDGNTYLEWYLQKPGQSPQLLIYKVSNRFSGVPDRFSGSGSGTDFTLKISRVEAEDLGVYYCFQGSHIPWTFGGGTKVEIKR

- hCRHR1-Luc 0.5 nM CRH IC50 [2]: 0.518 nM
B23: PR302341-27 (antibody, human IgG1, kappa, V domains shown)
VH: B22 VH with R44G, I70M, A76I, S85R, E89D
VL: B22 VL

- hCRHR1-Luc 0.5 nM CRH IC50 [3]: 0.773 nM
B24: PR302309-2 (antibody, human IgG1, kappa, V domains shown)
VH: QIQLVQSGPELKKPGETVKISCKASGYTFTNYGMNWVKQAPGKVLKWMGWINTYTGEPIYTDDFKGRFAFSLETSASTAYLQINNLKNEDTATYFCSRSTMITTGGVFAYWGQGTLVTVSA
VL: B22 VL with T7S, S12P, P15L, G26S, S28T, L42Q, K44R, Q50R, I99V

- hCRHR1-Luc 0.5 nM CRH IC50 [2]: 0.104 nM
B25: PR302341-17 (antibody, human IgG1, kappa, V domains shown)
VH: B22 VH with R44G, I70M, V72R, K74T, A76I, S85R, E89D
VL: DVLMTQTPLSLPVSLGDQASISCRSGQSIVHSDGNTYLEWYLQRPGQSPRLLIYKVSNRFSGVPDRFSGSGSGTDFTLKISRVGAEDLGIYYCFQGSHIPWTFGGGTKLEVKR

- hCRHR1-Luc 0.5 nM CRH IC50 [3]: 2.22 nM
B26: PR302309-3 (antibody, human IgG1, kappa, V domains shown)
VH: B24 VH
VL: B22 VL with V2I, G26S, S28T, L88V, I99V

- hCRHR1-Luc 0.5 nM CRH IC50 [2]: 0.169 nM
B27: PR302341-18 (antibody, human IgG1, kappa, V domains shown)
VH: B22 VH with R44G, I70M, A76I, S85R, E89D
VL: B25 VL

- hCRHR1-Luc 0.5 nM CRH IC50 [2]: 0.273 nM
B28: PR302341-26 (antibody, human IgG1, kappa, V domains shown)
VH: B22 VH with R44G, I70M, A76I, S85R, E89D
VL: B22 VL with L11S, S12P, P15L, L42Q, K44R, S48P, Q50R, S72A

- hCRHR1-Luc 0.5 nM CRH IC50 [2]: 0.043 nM
B29: PR302341-23 (antibody, human IgG1, kappa, V domains shown)
VH: B22 VH with R44G, I70M, A76I, S85R, E89D
VL: B22 VL with T7S, S12P, P15L, L42Q, K44R, Q50R

- hCRHR1-Luc 0.5 nM CRH IC50 [2]: 0.243 nM
B30: PR302341-22 (antibody, human IgG1, kappa, V domains shown)
VH: B22 VH with R44G, I70M, V72R, K74T, A76I, S85R, E89D
VL: B22 VL with T7S, S12P, P15L, L42Q, K44R, Q50R

- hCRHR1-Luc 0.5 nM CRH IC50 [3]: 1.26 nM
B31: PR302309-4 (antibody, human IgG1, kappa, V domains shown)
VH: B24 VH
VL: B22 VL with G26S, S28T, I99V

- hCRHR1-Luc 0.5 nM CRH IC50 [3]: 4.42 nM
B32: PR302309-1 (antibody, human IgG1, kappa, V domains shown)
VH: B24 VH
VL: DVVMTQSPLSLPVTLGQPASISCRSSQTIVHSDGNTYLEWFQQRPGQSPRRLIYKVSNRFSGVPDRFSGSGSGTDFTLKISRVEAEDVGVYYCFQGSHVPWTFGGGTKVEIKR

- hCRHR1-Luc 0.5 nM CRH IC50 [3]: 0.454 nM
B33: PR302309-5 (antibody, human IgG1, kappa, V domains shown)
VH: B24 VH
VL: B32 VL with V2I, S7T, L11S, F41L, S48P, R51L, S72A
